This note sets out measurements from PMC7116145.

Assay [1] concerns the target CPTX-HIS, purified recombinant (UniProt P23435). Description: SEC-MALS. On the technique in general: SEC sorts molecules by how far they enter the pores of the column.
Assay [2] concerns the target NP1PTX fused to the C-terminus of a three-stranded GCN4 coiled coil (UniProt Q15818). The assay can be described thus: SEC-MALS.
Assay [3] concerns the target CPTX, biotinylated on a C-terminal Avitag (immobilised in SPR) (UniProt P23435). The assay can be described thus: SPR. In general terms: Surface plasmon resonance follows binding to a sensor surface in real time, without labels.

human β-neurexin-1 LNS6 domain including spliced sequence #4, sequence (P58400 86-295): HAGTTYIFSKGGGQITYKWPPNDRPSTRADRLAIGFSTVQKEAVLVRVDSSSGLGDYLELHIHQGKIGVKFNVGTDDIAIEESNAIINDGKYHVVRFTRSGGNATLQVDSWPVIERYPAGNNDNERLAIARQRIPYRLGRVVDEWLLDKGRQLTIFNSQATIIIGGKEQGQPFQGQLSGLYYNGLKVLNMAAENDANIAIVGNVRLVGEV

For “CPTX-HIS, purified recombinant (from UniProt P23435 22-53; Q15818 224-431) (designed binder)”, the stoichiometry N (usually the number of molecules, sites or subunits per partner or assembly) in assay [1] is 6. With “NP1PTX fused to the C-terminus of a three-stranded GCN4 coiled coil (from UniProt Q15818 224-431)”, the stoichiometry N in assay [2] is 3. As to “human β-neurexin-1 LNS6 domain including spliced sequence #4 (from UniProt P58400 86-295) (domain or fragment)”, the dissociation constant Kd (as a rule, a measure of binding affinity in units of concentration) in assay [3] was found to be 4.9 nM.
